{"source": "patent US20130252983", "key": {"[1]": {"tested_on": "GAC (S103A), phospho-defective mutant of mouse glutaminase C", "sequence (chain, as listed by the source S103A)": "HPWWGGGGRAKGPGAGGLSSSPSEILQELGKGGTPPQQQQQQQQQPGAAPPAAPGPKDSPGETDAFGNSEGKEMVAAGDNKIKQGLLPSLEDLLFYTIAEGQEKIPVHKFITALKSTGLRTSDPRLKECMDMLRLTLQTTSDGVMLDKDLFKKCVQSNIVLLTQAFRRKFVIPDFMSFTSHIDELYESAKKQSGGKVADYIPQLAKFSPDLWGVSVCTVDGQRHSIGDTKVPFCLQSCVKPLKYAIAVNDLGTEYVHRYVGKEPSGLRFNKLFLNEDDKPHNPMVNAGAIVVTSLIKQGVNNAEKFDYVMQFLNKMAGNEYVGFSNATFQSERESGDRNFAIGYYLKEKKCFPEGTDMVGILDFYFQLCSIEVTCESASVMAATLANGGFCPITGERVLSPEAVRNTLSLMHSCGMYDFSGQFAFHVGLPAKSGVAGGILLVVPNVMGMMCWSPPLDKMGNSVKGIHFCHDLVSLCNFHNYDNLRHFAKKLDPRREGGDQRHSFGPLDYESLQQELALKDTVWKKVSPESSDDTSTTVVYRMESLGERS"}, "[2]": {"tested_on": "GACΔC, C-terminal truncation mutant of mouse glutaminase C", "sequence (chain, as listed by the source mutant)": "as the sequence (chain, as listed by the source S103A) above, with A49S counted along it"}, "[3]": {"tested_on": "V5-tagged wild-type mouse glutaminase C (GAC)", "sequence (chain, as listed by the source)": "as the sequence (chain, as listed by the source S103A) above, with A49S counted along it"}}, "data": [{"substance": "mTOR (mammalian target of rapamycin)", "values": [{"measurement": "phosphorylation of proteins immunoprecipitated with GAC after addition of radio-labeled ATP under conditions favorable for the activation of the mTOR kinase", "setting": "[1]", "value": "but not for proteins immunoprecipitated with GAC (S103A)"}, {"measurement": "phosphorylation of proteins immunoprecipitated with GAC after addition of radio-labeled ATP under conditions favorable for the activation of the mTOR kinase", "setting": "[2]", "value": "the phosphorylation of proteins immunoprecipitated with wild-type GAC and GACΔC is observed"}, {"measurement": "phosphorylation of proteins immunoprecipitated with GAC after addition of radio-labeled ATP under conditions favorable for the activation of the mTOR kinase", "setting": "[3]", "value": "the phosphorylation of proteins immunoprecipitated with wild-type GAC and GACΔC is observed"}]}]}
